Columns and labels:
PTHrP (1-34) [1] = molecular target: T1, PTHrP (1-34) (Homo sapiens, UniProt P12272); assay: ELISA, determination of antigen-binding ability; design: coating buffer supplemented with 1 μg/ml of human PTHrP (1-34) (Peptide Research Institute); purchased Peptide Research Institute; conditions: antibodies expressed in COS-7 cells; H-chain humanized version a
Description: An ELISA plate for the determination of antigen-binding ability was prepared as follows. Each well of a 96-well ELISA plate was coated with 100 μl of a coating buffer supplemented with 1 μg/ml of human PTHrP (1-34) (Peptide Research Institute), and then blocked with 200 μl of a dilution buffer. Each well was added with each of the serial dilutions of the COS-7 cell culture supernatant in which each of the chimeric antibodies had been expressed, or added with each of the serial dilutions of each of the chimeric antibodies per se in a purified form. After the plate was incubated at room temperature and washed with PBS-Tween 20, each well of the plate was added with 100 μl of a solution of alkaline phosphatase-conjugated goat anti-human IgG antibodies (TAGO). After the plate was incubated at room temperature and washed with PBS-Tween 20, each well of the plate was added with 1 mg/ml of a substrate solution (“Sigma 104”, p-nitrophenylphosphoric acid, SIGMA). The solution was measured on its absorbance at 405 nm using Microplate Reader (Bio Rad).
An ELISA plate for determining antigen-binding ability was prepared as follows. Each well of a 96-well ELISA plate (Maxisorp, NUNC) was coated with 100 μl of a coating buffer containing 1 μg/ml of human PTHrP (1-34) and then blocked with 200 μl of a dilution buffer. Subsequently, each well was added with each of the serial dilutions of the COS-7 cell culture supernatant in which each of the hybrid antibodies and humanized antibodies was expressed, or added with each of the serial dilutions of each of the hybrid antibodies and humanized antibodies in a purified form. The plate was incubated at room temperature and washed with PBS-Tween 20. Subsequently, each well was added with 100 μl of alkaline phosphatase-conjugated goat anti-human IgG antibody (TAGO). The plate was incubated at room temperature and washed with PBS-Tween 20. Subsequently, each well was added with 1 mg/ml of a substrate solution (“Sigma 104”, p-nitrophenylphosphoric acid, SIGMA). The solution was measured on its absorbance at 405 nm using Microplate Reader (Bio Rad).

PTHrP (1-34) [2] = molecular target: T1, PTHrP (1-34); assay: Hybridoma screening by solid phase RIA; type: binding; design: mixed with an equivalent amount of 4 ng/ml of PTHrP (1-34); host or cells: peptide added from outside to rat ROS17/2.8-5 cells; conditions: hybridoma culture supernatant
Description: The screening of hybridomas was performed by determining the presence of PTHrP-recognition antibodies in the culture supernatant of the wells in which cell growth had been observed in HAT medium, by solid phase RIA method. The hybridomas were collected from the wells in which the binding ability to the PTHrP-recognition antibodies had been confirmed. The hybridomas thus obtained was suspended into RPMI-1640 medium containing 15% FCS supplemented with OPI-supplement (Sigma), followed by unification of the hybridomas by limiting dilution method.

binding ability to PTHrP (1-34) (PTHrP (1-34) [2])	Molecule	antigen-binding (PTHrP-binding) activity compared with the chimeric #23-57-137-1 antibody (PTHrP (1-34) [1])
	m/hMBC1La λ: hybrid antibody: humanized H-chain with mouse FR1,2/human FR3,4 hybrid L-chain (from version a) (antibody, V domains shown) VH: QVQLVESGGGVVQPGRSLRLSCAASGFTFSSYGMSWVRQAPGKGLEWVATISSGGSYTYYPDSVKGRFTISRDNSKNTLYLQMNSLRAEDTAVYYCARQTTMTYFAYWGQGTLVTVSS VL: QLVLTQSSSASFSLGASAKLTCTLSSQHSTYTIEWYQQQPLKPPKYVMDLKQDGSHSTGDGIPDRFSGSSSGAERYLTISSLQSEDEADYYCGVGDTIKEQFVYVFGGGTKLTVL	the same level of antigen-binding activity as that of the chimeric #23-57-137-1 antibody
	m/hMBC1Ldλ: hybrid antibody: humanized H-chain with mouse FR1,2/human FR3,4 hybrid L-chain (from version d, 87 isoleucine) (antibody, V domains shown) VH: QVQLVESGGGVVQPGRSLRLSCAASGFTFSSYGMSWVRQAPGKGLEWVATISSGGSYTYYPDSVKGRFTISRDNSKNTLYLQMNSLRAEDTAVYYCARQTTMTYFAYWGQGTLVTVSS VL: QLVLTQSSSASFSLGASAKLTCTLSSQHSTYTIEWYQQQPLKPPKYVMDLKQDGSHSTGDGIPDRFSGSSSGAERYLTISSLQSEDEADYICGVGDTIKEQFVYVFGGGTKLTVL	the same level of antigen-binding activity as that of the chimeric #23-57-137-1 antibody
	hmmMBC1L(λ): hybrid antibody: humanized H-chain with human FR1/mouse FR2,3,4 hybrid L-chain (antibody, V domains shown) VH: QVQLVESGGGVVQPGRSLRLSCAASGFTFSSYGMSWVRQAPGKGLEWVATISSGGSYTYYPDSVKGRFTISRDNSKNTLYLQMNSLRAEDTAVYYCARQTTMTYFAYWGQGTLVTVSS VL: QLVLTQSPSASASLGASVKLTCTLSSQHSTYTIEWYQQQPLKPPKYVMDLKQDGSHSTGDGIPDRFSGSSSGADRYLSISNIQPEDEAMYICGVGDTIKEQFVYVFGGGTKVTVL	the same level of antigen-binding activity as that of the chimeric #23-57-137-1 antibody
high binding ability	#23-57-137-1: mouse monoclonal antibody against human PTHrP (1-34) from hybridoma #23-57-137-1 (FERM BP-5631) (antibody, V domains shown) VH: EVQLVESGGDLVKPGGSLKLSCAASGFTFSSYGMSWIRQTPDKRLEWVATISSGGSYTYYPDSVKGRFTISRDNAKNTLYLQMSSLKSEDTAMFYCARQTTMTYFAYWGQGTLVTVSA VL: QLVLTQSSSASFSLGASAKLTCTLSSQHSTYTIEWYQQQPLKPPKYVMDLKQDGSHSTGDGIPDRFSGSSSGADRYLSISNIQPEDEAMYICGVGDTIKEQFVYVFGGGTKVTVLGQP	
	antibody having both a humanized H-chain version “a” and a chimeric L-chain: antibody with humanized #23-57-137-1 H-chain version a and chimeric L-chain (antibody, V domains shown) VH: QVQLVESGGGVVQPGRSLRLSCAASGFTFSSYGMSWVRQAPGKGLEWVATISSGGSYTYYPDSVKGRFTISRDNSKNTLYLQMNSLRAEDTAVYYCARQTTMTYFAYWGQGTLVTVSS VL: QLVLTQSSSASFSLGASAKLTCTLSSQHSTYTIEWYQQQPLKPPKYVMDLKQDGSHSTGDGIPDRFSGSSSGADRYLSISNIQPEDEAMYICGVGDTIKEQFVYVFGGGTKVTVLGQP	the same level of PTHrP-binding activity as that of a chimeric antibody

Reference: patent publication US20030049211A1, “Remedies and preventives for dental diseases” (priority 2000, published 2003)
